Starred links: 1 amine or outer side, 2 acyl side, 3 side chain; linkers in the order of their positions; H or OH if unused. Non-standard residues stand in square brackets, D forms with d. Groups on a side chain read outwards from the residue. No end group written: not given here. *: point of attachment. C20 diacid = O=C(O)CCCCCCCCCCCCCCCCCCC(=O)*; C18 diacid = O=C(O)CCCCCCCCCCCCCCCCC(=O)*; γGlu = O=C(O)[C@H](CCC(=O)[*:2])N[*:1]; εLys = N[C@@H](CCCCN[*:1])C(=O)[*:2]; AEEA = NCCOCCOCC(=O)O; Aib = CC(C)(N)C(=O)O
T1: human GIP receptor (human, UniProt P48546 22-466)
T1 sequence (looked up): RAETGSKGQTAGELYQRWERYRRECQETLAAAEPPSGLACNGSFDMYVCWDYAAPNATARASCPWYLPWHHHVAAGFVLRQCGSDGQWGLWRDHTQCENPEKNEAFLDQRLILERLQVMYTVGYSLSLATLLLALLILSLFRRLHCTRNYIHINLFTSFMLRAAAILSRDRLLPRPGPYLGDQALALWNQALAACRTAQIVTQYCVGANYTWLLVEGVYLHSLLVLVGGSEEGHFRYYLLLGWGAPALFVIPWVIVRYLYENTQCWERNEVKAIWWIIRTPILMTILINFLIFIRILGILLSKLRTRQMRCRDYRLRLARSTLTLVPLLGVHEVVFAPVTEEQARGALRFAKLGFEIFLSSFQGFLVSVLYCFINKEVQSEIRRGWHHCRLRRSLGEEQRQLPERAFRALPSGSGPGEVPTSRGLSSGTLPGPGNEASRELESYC

T2: human neuropeptide Y2 (NPY2) receptor (human, UniProt P49146 1-381)
T2 sequence (looked up): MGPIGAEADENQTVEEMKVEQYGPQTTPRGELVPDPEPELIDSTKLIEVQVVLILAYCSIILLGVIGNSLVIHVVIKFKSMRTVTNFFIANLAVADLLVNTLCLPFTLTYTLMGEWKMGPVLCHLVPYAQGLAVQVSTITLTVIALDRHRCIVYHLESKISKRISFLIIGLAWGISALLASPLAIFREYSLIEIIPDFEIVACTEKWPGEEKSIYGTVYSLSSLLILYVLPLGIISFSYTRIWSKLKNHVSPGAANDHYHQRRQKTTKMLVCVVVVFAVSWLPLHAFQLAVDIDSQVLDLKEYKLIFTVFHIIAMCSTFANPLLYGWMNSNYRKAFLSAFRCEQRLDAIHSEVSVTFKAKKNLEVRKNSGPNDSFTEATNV


Assays:
Experiment in all cases: cell-based or functional assay
human GLP-1 receptor = human GLP-1 receptor (human, UniProt P43220 24-463)
human GIP receptor = target: T1, human GIP receptor
[1] = target: T2, human neuropeptide Y2 (NPY2) receptor

EC50, CreLuc assay, 0.5% hP (human GLP-1 receptor) [nM]	EC50, CreLuc assay, 100% hP (human GLP-1 receptor) [nM]	EC50, CreLuc assay, 0.5% hP (human GIP receptor) [nM]	EC50, CreLuc assay, 100% hP (human GIP receptor) [nM]	EC50, CreLuc assay, 0.5% hP [1] [nM]	EC50, CreLuc assay, 100% hP [1] [nM]	Binder
0.22	7.71	0.24	1.4	14	60.1	Y[Aib]EGTFTSDYSI[Aib]LEKQAE[Aib]AFVQWLIKGGPSEPASLRHYYNWLTRQRY-NH2 (not fully specified (residue 28); also: TFA salt) [Compound 54]
0.09	3.17	0.12	0.65	18.7	93.5	Y[Aib]EGTFTSDYSI[Aib]LEKQAQ[Aib]AFVQWLIK([AEEA-AEEA-Glu-Glu-Glu-Glu-C18 diacid])GGPESGASLRHYYNWLTRQRY-NH2 (also: TFA salt) [Compound 52]
0.25	8.97	0.27	1.02	27.2	48.8	Y[Aib]EGTFTSDYSI[Aib]LEKQAQ[Aib]EFVEWLIK([AEEA-AEEA-γGlu-γGlu-γGlu-γGlu-C18 diacid])GGPSSPASLRHYYNWLTRQRY-NH2 (also: TFA salt) [Compound 56]
0.05	2	0.24	0.31	10.2	22.8	Y[Aib]EGTFTSDYSI[Aib]LEKQAQ[Aib]AFVQWLIK([AEEA-AEEA-γGlu-γGlu-γGlu-γGlu-C18 diacid])GGPESGASLRHYYNWLTRQRY-NH2 (also: TFA salt) [Compound 58]
0.14	6.45	0.18	1.17	9.74	33.6	Y[Aib]EGTFTSDYSI[Aib]LEKQAQ[Aib]AFVQWLIK([AEEA-AEEA-γGlu-γGlu-γGlu-γGlu-C18 diacid])GGPEEPASLRHYYNWLTRQRY-NH2 (also: TFA salt) [Compound 57]
0.09	4.17	0.12	0.82	16	53.4	Y[Aib]EGTFTSDYSI[Aib]LEKQAQ[Aib]AFVQWLIKGGPESGASLRHYYNWLTRQRY-NH2 (not fully specified (residue 28); also: TFA salt) [Compound 55]
0.13	1.58	0.23	0.63	16.9	36.7	Y[Aib]EGTFTSDYSI[Aib]LEEEAQ[Aib]AFVQWLIK([εLys-εLys-γGlu-γGlu-γGlu-γGlu-γGlu-C20 diacid])GGPSSGASLRHYYNWLTRQRY-NH2 (also: TFA salt) [Compound 7]
0.06	1.47	0.07	0.62	10.2	34.6	YXEGTFTSDYSIXLEKQAQXAFVEWLIKGGPSSPQSLRHYYNWLTRQRY (Aib at 2, 13, 20; K28 side chain: C20DA-gGlu-gGlu-gGlu-gGlu-gGlu-gGlu-eLys; C-terminal NH2) [Compound 41]
0.12	2.08	0.07	1.25	12.5	36.8	YXEGTFTSDYSIXLEKQAQXAFVEWLIKGGPSSGESXRHYYNWLTRQRY (Aib at 2, 13, 20, 37; K28 side chain: C20DA-gGlu-gGlu-gGlu-gGlu-gGlu-gGlu-eLys; C-terminal NH2) [Compound 49]
0.07	1.14	0.25	0.73	7.9	30.5	YXEGTFTSDYSIXLEKQAQXAFVQWLIKGGPSSGVSLRHYYNWLTRQRY (Aib at 2, 13, 20; K28 side chain: C20DA-gGlu-gGlu-gGlu-gGlu-gGlu-gGlu-eLys; C-terminal NH2) [Compound 47]
0.21	5.94	0.2	1.21	10.2	36	YXEGTFTSDYSIXLEKEAQXKFVEWLIKGGPSSGASLRHYYNWLTRQRY (Aib at 2, 13, 20; K28 side chain: C20DA-gGlu-gGlu-gGlu-gGlu-gGlu-gGlu-eLys; C-terminal NH2) [Compound 46]
0.07	3.1	0.07	0.68	9.77	35.2	YXEGTFTSDYSIXLEKQAQXAFVEWLIKGGPSEPQSIRHYYNWLTRQRY (Aib at 2, 13, 20; K28 side chain: C20DA-gGlu-gGlu-gGlu-gGlu-gGlu-gGlu-eLys; C-terminal NH2) [Compound 48]
0.07	2.12	0.05	1.14	9.35	24.5	YXEGTFTSDYSIXLEKQAQXAFVEWLIKGGPSSGQSXRHYYNWLTRQRY (Aib at 2, 13, 20, 37; K28 side chain: C20DA-gGlu-gGlu-gGlu-gGlu-gGlu-gGlu-eLys; C-terminal NH2) [Compound 44]
0.15	4.66	0.23	1.37	13.8	42.2	YXEGTFTSDYSIXLEKQAEXAFVQWLIKGGPSSGASLRHYYNWLTRQRY (Aib at 2, 13, 20; K28 side chain: C18DA-gGlu-gGlu-gGlu-gGlu-gGlu-gGlu-eLys; C-terminal NH2) [Compound 51]
0.09	3.46	0.13	1.38	13.2	50.6	YXEGTFTSDYSIXLEKQAQXAFVQWLIKGGPESGASLRHYYNWLTRQRY (Aib at 2, 13, 20; K28 side chain: C18DA-gGlu-gGlu-gGlu-gGlu-gGlu; C-terminal NH2) [Compound 53]
0.13	3.75	0.12	1.47	11.8	52.5	YXEGTFTSDYSIXLEKQAQXAFVEWLIKGGPSSYESLRHYYNWLTRQRY (Aib at 2, 13, 20; K28 side chain: C20DA-gGlu-gGlu-gGlu-gGlu-gGlu-gGlu-eLys; C-terminal NH2) [Compound 50]
0.36	7.15	0.15	1.34	8.82	19.1	YXEGTFTSDYSIXLEKQAQXAFVEWLIKGGPSEYVSIRHYYNWLTRQRY (Aib at 2, 13, 20; K28 side chain: C20DA-gGlu-gGlu-gGlu-gGlu-gGlu-gGlu-eLys; C-terminal NH2) [Compound 42]
0.41	5.91	0.64	1.97	13.1	21.1	Y[Aib]EGTFTSDYSI[Aib]LEKQAQ[Aib]EFVQWLIK([εLys-γGlu-γGlu-γGlu-γGlu-γGlu-γGlu-γGlu-C20 diacid])GGPSSGASLRHYYNWLTRQRY-NH2 (also: TFA salt) [Compound 43]
0.11	1.6	0.14	1.15	17.2	46.5	Y[Aib]EGTFTSDYSI[Aib]LEEQAQ[Aib]AFVQWLIK([εLys-AEEA-γGlu-γGlu-γGlu-γGlu-γGlu-C20 diacid])GGPSSGASLRHYYNWLTRQRY-NH2 (also: TFA salt) [Compound 45]
0.9	42.8	2.99	31.1	16.9	86.7	Y[Aib]EGTFTSDYSI[Aib]LEKQAQ[Aib]AFVQWLIKGGQRYYASLRHYYNWLTRQRY-NH2 (not fully specified (residue 28); also: TFA salt) [Compound 6]

— patent US20240247080A1, “GLP1/GIP/NPY2 RECEPTOR TRIPLE AGONISTS” (Boehringer Ingelheim International GmbH, priority 2022, published 2024)
